Test: soluble fraction after stress (log2 fold change); higher = more stays soluble; pooled small domains, quantitative proteomics
Conditions: stress: 75 degC
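Also: 20 min heating vs room temperature control held 20 min.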

Sequence	soluble fraction (log2)
HMYIDLHEIWKSLTDEEQTVVKLLETEPAHVDTLIENSQIPASRILATLTLLEVRGIVKRLPGRMFSLAD	-3.61
HMYIENIGDYLKSHDIKPSYQRIKVFEYLMQHKNHPTVDMIYKSLVDEIPTLSKTTVYNTLNLFIEKQI	-1.55
HMYITGAVIRKLREKNNITQLQLAERLRVSDKTISKWETGKGYPDITLLEPIAKTFSVSVTELISGDI	-2.46
HMYKNLRAFRESLGMTQKDFAASLSIGLSTYNGYEVGAREPKSDFWIAVARKYGVTIDYLMGFSDDPHK	-1.46
HMYKSSRASKSEVNKFLKFIIQSLDKRGFLQPGHKRQSMIRNIENIFYRTNLSDQEIRILLGIFSTLNK	-0.9
HMYLELVTKEGGSFDEPDYWGRRKLAYEIAGKTEGNYVVVKYTAEPATSDELDRVLNLNESVIRTKILRK	0.00439
HMYLHSEFSPVTGQELHMKYDDSSTEEDPVMLVEGKDIQGNDFVKKIHLNDVDPENATPAEMTALRVHL	0.206
HMYLLPVTSTELKGNYPNPFNPETTISFDLKDAERVNLSIYNLKGQLVRTLVNSDLPIGRHRLIWDGNDS	-0.622
HMYLPGERMRIKITALGSNPKQGVGYLPDGMMVVVDEAATLVGRFVEIEFVKFLQTNSGRMMFAKVAT	-1.96
HMYMKGKVKWFDSKKGYGFITSENGKEIFVHFSGIAAKGFKSLNEGQTVEFEVANGAKGEQAVNVTV	-1.23
HMYMKTITEQFGERLKKIRTQKSLSQEQLSYLADIDRSYISDVERGARNISLENIYKLASALNIPPYLVLL	-0.341
HMYMLYQQLADSLRDKIYEGTYTFGDKIPSERTLAATFGISHLTVRKALAILEEEGLLDRRQGNGTFVRV	-1.09
HMYNIDSFMTKNYPTMERFTLSDVQKKYKTTFGLFVKQDELASMIEKTGRFNITSSKNVKYVNR	-1.88
HMYNPAYDAEIKVILELARHGYWEEARERADELLKAAPDDTGVKRIQTWVRQQEQRMREQAIEDSIRA	-0.288
HMYPEETVNKILDVSMQLFLEKGYEHTSIQDIVNHLGGLSKGAIYHHFKSKEDILDGVMNKLYQNN	-1.58
HMYPGQILEIYLDEIKRLYLNGLSSADIFAEIKEGSIPSVKKAIRSMKDGSAPVKITEAEESTRIAPS	-0.543
HMYPTPAAANRHFLDKWGHQEAYLGKVLNSRSRASEILNGKRPLSLSDLRTLRDNLGIPVDLLL	-0.648

Sequence	soluble fraction (log2)
HMYQKERDKEISEIETFLKKITNANGTRAYSDESIADMSYVELLNLYEGITSKLTEEEIENI	0.0659
HMYQPLYEQIKRMLTQSLIDGEWKAGEMIPSEMELAARFKVSQGTVRKAIDELVSENILMRRQGKGTFVH	-0.962
HMYSDDNKSILNLIDNLFNKENIKIDINAKKLLSNYLGVDRLVTKGEIEKAILFAGTKKHLSIEDISAFLS	-0.104
HMYSFPHQLLKLRTEKQLSQAELATRLFVSRQAVSKWENGDAEPSIDKLILLAKVFNVSLDRLILGT	-4.31
HMYSIDNPPDWLKNLPKGAIRIGVEVFNQVLSKADDEDRARMAAWSAIKAKYEKADDGQWQPKAA	0.0816
HMYSNDEIVNYLKNYIFDNFNLNELSDEELEEKIAELVQQQFAGQLLSLDEKVKLVNQVYSSIR	-0.0578
HMYSRQRDLILKALRENVVHPTADFIYTVLKEKEPNLSLATVYRNLNLLANEGIIRKIEGLDGVAHFDH	-1.85
HMYSVVGKKGIVIEDINYSTGTGQIKSEGEVWSAKTNEQINIPKGTEIEIESIDGVKVIVKPL	0.109
HMYTDGVPALTDLKKESKPGRRQYVGVEDIPKVLGGLGITILSTSKGLMSGHQAKKKNIGGELIASV	0.102
HMYTEIDDVKDLLSKIPSVNKLTTADRGMVQAARNAYDALDEDQKLYITIADVEKFNAAVEWMEEH	-0.186
HMYTVRDGDTVFGILNRFGVSLDELLSLNPELSNGLKAGMVLKIK	-0.542
HMYVADVVGMGIKDALYILENQGLRVVFTGKGVVKNQSIAVGEKIIKGEKIVLML	-1.88
HMYVQDPVDRLVLESALRLLREQEREIIFLHLVAGLKHREIAGLLHLPLSTVLSGYRRALTKMKSYLEE	-0.0135
HMYVTGETIRHLRTQRRMTQEQLAETLGVTGKAVSKWETGRGFPDMSLLEPLARALRISVPELLSGE	-1.07
HMYYNQGILKSGASVYGEPGITSSHRLEIPSGSFVDIVQEKDEWVYYEKNHVNHGWVLRENIYIPSL	0.149
HMYYQEDHDIILEETEDVTDPYLITLRGYIFLNNLQWVAARQAFLSADERFRHRHYSALIAPIMQTIDNAA	0.359
HMYYSERILTILEERGISPYRVSKETGISQSVFSNWKRKPTSRITAANLERLADYLGLPVEVLTG	-3.48

Reference: the domain aggregation screens of Martell et al. (2025)
